According to the NTF2 design screens of Basanta et al. (2020):

Assay: protease stability score; higher = more stable; yeast display proteolysis, trypsin and chymotrypsin;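 also: log10 excess protease needed over predicted unfolded state with 0 meaning unfolded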

Sequence | protease stability score
DEKKVKKVADKVMRVAANGDNETARKLGKPDVTFEAGSNKMRGVEQVDKYYEKVKRQGNELHIKEVKVEGDRAKVKYDIKIGGTEMTVTAEVYIENDKVEKARIEMDEDYEKKVTKG | -0.338
DEKKVLEVIQKFAEAIKDGNAEQAKKLGKEGIQVHIGDETINGPDQVEKYVKKVKDLGNEVHYKEKEVKGDEVTVHTEVKMGDQTVHFEVHYRAKDDKVEQFHVKFDKDEARRFKTS | -0.27
DEKKVQEVAKDALKVDLQGDVEKMKKLGKPDVTFQLGDQEVHGPDDLKKYYDKVKRLGEEIHVKKVKVEGDKMQAHYELRVAGKQATVTVEVTVKDEKVEEARAEMTEKYKKALEEG | -0.154
DEKKVREFMERLFKAAENGNKDELRKVLMPNVKYQYVDKEKEGEEVAKEVAKAVKKVGAEIKKQEERVKGDTVEAVFQYKQGDTTVQTTVQIKYEGDKAKEVRVKLSDEVKKIVHRG | -0.079
DEKKWEQWARHFNQLMKQNDPDTLMQLFDPNARVKYGDKEVHGRTQIVKMWQTLVEQVDHIRIKNYSVSGDHVVIEIIVVVNGQEVEFVFRARVHNGTIKSASIDYRNEEHYKRAQG | 0.264
DEKKYEELLREVQKYLYQGNYEEAQKVLAPNVVFEVGDYKMNGLEQVMKYYKKVKDRGAEIHVEEMEVTGHKARVVYKLHVGGRTIEVTAEVKVEDERVKKARVEVSEEYVKHVQHG | 1.61
DEKLEKLVDEFIEAEHTNNPEELKKLIDPNARFRIGDKDVHGREEWNEDMKRINDELRIEVHIKHVDARGDHVDIEMEFTFNVNGRPVNQTAKQQIKFENGRMKRVVNNVSEDQVEQLHR | 0.194
DEKLHHQIKEFIKAMKNGDPDKVQELADPNAEFRVGDKEIHGMDKYHKTVHDRHRKQRVNIQLHQLTVKGDKAEFVVTIDVQHNGQPSNDVYRAVIKLKNGKIQVVDRQKDQ | -0.138
DEKLIKLLKSLLKIQESGDPDKLRTMADPNVRFNIGDKVFHGMEEYATHVVELRKQAHIRIERLSNSDSNGVVNADFTRVNNHNGKPDSRRQEVTYVAHGDRIKEVNNQDHQ | -0.503
DEKLLDLLEKILQAEHENDPDQARELADPNVKYRYGDKSVNGRHEWVKDLERKTQKIKVEYKRIQVDAKGDKAHANVHMTVNHNGKPDKVLMEIVVRAHNGKVTELTVHEDK | 0.041
DEKLLELAKKMRRAEETGDEDQLREMADKDAKFDIGDKRIHGMDTFVRQIKHELDKMRREITSVEFRVEGEEVVIHVHWVYSHNGQPRTKEYTMKFEIRGDKIKDLHIDNRG | 0.007
DEKLLKRLEEFWKAVRKGNKQEIEEYADPNVRFQIGDKQVHGRENAKKYFHDERREIRIEYHDLKVRVRGDRIEIRYTVQYTHNGQPTERHYDIEIVLNGEKMKSMSVRTDR | -0.026
DEKMLQHMEDALRRNDEQRLVELVDEDVKIKIGDRDVHGSERAQKIAETRKERIDSQDFKSMDLSGNKVTVDRVVVVNGVKFRVVVIYELSNGRIKRIEVRVTDEENKRRLQKQLS | 0.63
DEKNDRVLRRVMEAIHRGDPDKIHNQLDPNVKAEVGDKRFHGMEHIVEQVKRNWDNMRMRMKDVTVEDHNGQANAKVTYEVTENGQPKRAHVTVQAHAHDGRLTSVTYDTHE | -0.371
DEKNEDAARKLFNAWKQNDPDHARKLADPNVRFKYGDTQVHGRDQYARELRETNKQMRLEYKHVTIRVKNGNAEVNMNVRYNHNGQPRESTRRMTFKVENGKLVDVDIKTDK | 0.133
DEKNLNQLKDLIKTNDEERIHELMDPNVRLVIGDQEVQGRENVFKVLKRWRERADHVRYNDLKLHDGRAFADVEINVNGENIRVHYVYVAHNGRIKEIKVTATDEDEQRKVEDNYK | 1.37
DEKNMRVVETYLKALTRGDPDQAMRQVDEDVELTVGDKEVKGREEFSKLVKKWQDQARFSLQIHRVKVHENHVNINAEVTWDVNGKPQSFSHIIHARVHNGRIKHMSWEVPTEEWQNIEK | 1.29
DEKNSKLAKDFFEAIESNNPEHAKELADENARYQVGDKQLHGMDEVLKHIKRENERAQVTVSSMTFRISNGRVEVHMDVQRDDNGDPDKKNLVVNFHFRNGKIKEVQDKNDS | 0.614

Sequence | protease stability score
DEKQADRAEKFMRALNEGNEDQATRLFDPNAHVVYGDTEVHGRERIRETIRNLQREMSVRYEVHRIEDRNGHVNLHADVTLQHNGRPARYVLTINVRADNGTIVSLNMRVPEEEKEKMKG | 0.15
DEKQAKELADEYIKAFEEGDPDKHQELVDKDAQVNYGDKTLHGREEFRKLVEELRRQADHISVHNVDYQGNKVVVHYVVDVNGHKVELSYTVQYHDGRMKQASVSYRSEDLKREQEQ | 0.384
DEKQAKKVLKQMVKAVFNNDEELLKKLGKEDVEVQFMDTKYKGPDQLKKILEQYKRYGIEFHIKKTKVEGDKMQVHAQVHLADNTADVTAEYQADNGKVDHTRVQFSDTAKEVFKKG | -0.003
DEKQALDVAHEAARAVAEGDDQKLREHMDPNATMEYGDKQVHGRENIMRVAKEFRDRADNVEIKSVHLTGNKVNVHVLLTHNGHTQRVRIDAKAHNGRVKSIRLDDK | 1.06
DEKQDKHYKKMMDEGDWKHFANNADPNARVDIGDKEYHGREQVNKALRRISEQADDFRVHDVQVENGRVRADVEFHVNGRSLKVDIRAVLHNGEVTHFHMSVTSEEVKQMLREIFD | 0.289
DEKQDRDIQRVLHDNNPDHMKKLVDENAHAQVGNKTYHGREQVLTLIEHMVRTVDHMSIDKVEVKNGKADMDYHVNINGQSARVRVDVKFHNGRIKEIRIQATDKEVRDILDEAFD | 1.23
DEKQKKDLLKQAVEMYLSGNSEEVRKLLKDDGEVEAGDQTYKGVEQVMKVVEQFKRYGVKLQMTDLKVDGDTVKVKAKLQNGGKTWEFEVTAQADGGKVDKITFKYSEEAKEDIEKG | -0.056
DEKQLHRVRHFLEVVRQGDEDNLREMADPNVRMVVGDKQFHGREEAVKFLVHKAKELRIDVKFKTINVRGDKVKAVAEMTENQNGKPHHAKLTWEIQMSNGKIQQLDFKLST | 0.275
DEKQLKHVQEWVETGDPDQFARNADPNAEIQIGNTTWQGREEIQKLAHRLKKQVDTQELKDIQVHGDHVLVNRVMEWDGHTFEFSMHIKVQNGRIKSVDVKVRDPSQQKELEDHLS | -0.087
DEKQLKKAADRMVKAMETGDPQQINRMADENVRVEVGDKRISGEEDINRWLKELSDQADHARVKSIDASGNTVRVEMTIVVNGRETKLTIHVHFENGTAHHVRFQKS | 0.223
DEKQLTLLRRIFEALLRNDEDKLKDLLDPNVKVRYGDKDLHGRENVAESIVRTNQEARFHVRRVTFRDHNGQAKVKVDFDQQHNGQPRSARLDVSMQRHNGRVKSISFKVDT | 0.649
DEKQLVEVIREVIKALQQGHRDKVKKLGGPNVEVQAADYRNKGPEAILHMAEIVQRIGDEFQYRRTEQKGGTVTTTVEVHVGGHTVRYEVNAEAEGGKLKYWQADDDDKFIQHVKES | 0.725
DEKQMEQVNKNMETGDWDKLQEQADEDVRLVVGEREFHGREQFSEFAKQAKRMVDDNTIHRIDLQGEKVKIKFVIKHNGRTVDVTVVMEVHNGRIKRYVLRARDEDAEDIIRKMLS | 0.902
DEKQMRSVTKFIRVLQHGDNNQLRRLADPNAKARVGEKDVTGMDDILTRWVTFVEQARVKIDIREMDVSNGKVVIDAHIEIDINGRPLRDKITIIAEYRNGRLKFLELHVDQDFMRKVKR | 0.223
DEKQNAEKVMTDVERNLREGDDNKIKEMADKDAKADVGEKKVTGREDIAKMLATLNKSVDEVTLDLKHVTTQGDFLNVKADIKWRHNGTTRQNKVEMWVNDFNGNVVIKHLRIG | 1.08
DEKQNDVVDDFMRAVREGDPTQLKSLVDPNARIQIGDRTYTGMEEYVTHVHKDLRKMRIEIRIKDIKAHNGHARIEFEVINTDNGRPDKKRMDVEFRIHNGKLKEAQYKSDR | 0.766
DEKQNNHFKDLMETNDWTQIAKQADENAKAKYGDKTVHGRENITHNNRRIKNRVDEMRIRNLTLEPNRIVQNFVVRVNGQDAQAVMTLEFENGRVKSVKLQARDTRVEEVLRKMMQ | 0.465
DEKQNQEMQDMLHTGDFKRIADLVDENAEWNYGDKTYHGRKTIKKFLDAFQHRADHVEVKRFDVHNGHVSANMQMNVDGRRIDFRVVVHVENGRVKEYRMDFTDPRQQREVERQVE | 0.745
